B1: glmS ribozyme (parent)
chain: AUAAAAGCGCCAGAACUACAGAAAUGUAGUUGACGAGGAGGAGGUUUAUCGAAUUUUCGGCGGAUGCCUCCAAA

± gives the standard error. Variants at the floor of the assay were thinned out.

Conditions in all cases: with glucosamine-6-phosphate
Data set [1] covers variants of B1. Put plainly: self-cleavage kobs at 160 uM GlcN6P; higher = faster cleavage; RNA array. The essentials:
(§1)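 Barcoded glmS ribozyme variants on sequenced MiSeq chips were transcribed in situ by E. coli RNA polymerase and tracked through a hybridised Cy3 probe at 37 °C. Glucosamine-6-phosphate (40 μM to 10 mM) in HEPES/KCl/Mg(OAc)2 buffer was flowed in, and tiles were imaged over ~14 h. Signals were normalised to baseline and to non-cleaving reference variants; per-tile medians were fit to one- or two-exponential decays to give kobs. kcat and KM came from weighted Michaelis–Menten fits across concentrations.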

Data set [2] covers variants of B1. Put plainly: self-cleavage kobs at 640 uM GlcN6P; higher = faster cleavage; RNA array. The essentials:
as §1

Variants of B1 are the subject of data set [3]. In words: self-cleavage kobs at 2500 uM GlcN6P; higher = faster cleavage; RNA array. The essentials: as §1
Variants of B1 are the subject of data set [4]. In words: self-cleavage kobs at 10000 uM GlcN6P; higher = faster cleavage; RNA array. The essentials: as §1

As for G38C G63A, the “self-cleavage kobs at 160 uM GlcN6P” value with glucosamine-6-phosphate [1] was less than 1e-05 s⁻¹. In addition, the “self-cleavage kobs at 640 uM GlcN6P” value with glucosamine-6-phosphate [2] is less than 1e-05 s⁻¹. The “self-cleavage kobs at 2500 uM GlcN6P” value with glucosamine-6-phosphate [3] was less than 1e-05 s⁻¹.
As to G41U U45C G59U, the “self-cleavage kobs at 160 uM GlcN6P” value in the data set with glucosamine-6-phosphate [1] was less than 1e-05 s⁻¹. The “self-cleavage kobs at 640 uM GlcN6P” value in the data set with glucosamine-6-phosphate [2] is less than 1e-05 s⁻¹. For the same variant, the “self-cleavage kobs at 2500 uM GlcN6P” value in the data set with glucosamine-6-phosphate [3] is less than 1e-05 s⁻¹.
Turning to G7U C34A U65G, the “self-cleavage kobs at 160 uM GlcN6P” value with glucosamine-6-phosphate [1] was less than 1e-05 s⁻¹. In addition, the “self-cleavage kobs at 640 uM GlcN6P” value in the data set with glucosamine-6-phosphate [2] was less than 1e-05 s⁻¹.
With C10U A53C, the “self-cleavage kobs at 160 uM GlcN6P” value with glucosamine-6-phosphate [1] is less than 1e-05 s⁻¹. In addition, the “self-cleavage kobs at 640 uM GlcN6P” value with glucosamine-6-phosphate [2] was less than 1e-05 s⁻¹.
As for C8G C10U G51U A53U, the “self-cleavage kobs at 160 uM GlcN6P” value with glucosamine-6-phosphate [1] is less than 1e-05 s⁻¹. For the same variant, in the data set with glucosamine-6-phosphate [2], the “self-cleavage kobs at 640 uM GlcN6P” value was less than 1e-05 s⁻¹.
With C8A U31C A48U G51A G59C, the “self-cleavage kobs at 160 uM GlcN6P” value with glucosamine-6-phosphate [1] is less than 1e-05 s⁻¹. Also, in the data set with glucosamine-6-phosphate [2], the “self-cleavage kobs at 640 uM GlcN6P” value is less than 1e-05 s⁻¹. Also, the “self-cleavage kobs at 2500 uM GlcN6P” value with glucosamine-6-phosphate [3] was less than 1e-05 s⁻¹.
As to G38A G40A U49G G60U, the “self-cleavage kobs at 160 uM GlcN6P” value with glucosamine-6-phosphate [1] is less than 1e-05 s⁻¹. The “self-cleavage kobs at 640 uM GlcN6P” value in the data set with glucosamine-6-phosphate [2] was less than 1e-05 s⁻¹. Moreover, the “self-cleavage kobs at 2500 uM GlcN6P” value with glucosamine-6-phosphate [3] is less than 1e-05 s⁻¹.
Regarding U31C G41A G59U, the “self-cleavage kobs at 160 uM GlcN6P” value in the data set with glucosamine-6-phosphate [1] was less than 1e-05 s⁻¹. In the data set with glucosamine-6-phosphate [2], the “self-cleavage kobs at 640 uM GlcN6P” value was less than 1e-05 s⁻¹. Also, the “self-cleavage kobs at 2500 uM GlcN6P” value in the data set with glucosamine-6-phosphate [3] is less than 1e-05 s⁻¹.
For the variant A6G U47C U55C C71U, the “self-cleavage kobs at 160 uM GlcN6P” value with glucosamine-6-phosphate [1] was less than 1e-05 s⁻¹. Also, the “self-cleavage kobs at 640 uM GlcN6P” value with glucosamine-6-phosphate [2] was less than 1e-05 s⁻¹. For the same variant, in the data set with glucosamine-6-phosphate [3], the “self-cleavage kobs at 2500 uM GlcN6P” value is less than 1e-05 s⁻¹.
On to G37A G38U U55C, for which the “self-cleavage kobs at 160 uM GlcN6P” value in the data set with glucosamine-6-phosphate [1] is less than 1e-05 s⁻¹. Further, the “self-cleavage kobs at 640 uM GlcN6P” value in the data set with glucosamine-6-phosphate [2] is less than 1e-05 s⁻¹.
In the case of G13A U45C C50U C71G, the “self-cleavage kobs at 160 uM GlcN6P” value with glucosamine-6-phosphate [1] was less than 1e-05 s⁻¹. Moreover, the “self-cleavage kobs at 640 uM GlcN6P” value with glucosamine-6-phosphate [2] is less than 1e-05 s⁻¹. Moreover, the “self-cleavage kobs at 2500 uM GlcN6P” value with glucosamine-6-phosphate [3] is less than 1e-05 s⁻¹.
A12U A14U U45A: the “self-cleavage kobs at 160 uM GlcN6P” value with glucosamine-6-phosphate [1] is 0.000413 ± 0.0001 s⁻¹. For the same variant, the “self-cleavage kobs at 640 uM GlcN6P” value in the data set with glucosamine-6-phosphate [2] was determined as 0.00157 ± 0.00031 s⁻¹. In addition, the “self-cleavage kobs at 2500 uM GlcN6P” value in the data set with glucosamine-6-phosphate [3] was found to be 0.00242 ± 0.00082 s⁻¹.
In the case of A14G U54C G60C A64G C70G, the “self-cleavage kobs at 160 uM GlcN6P” value with glucosamine-6-phosphate [1] is less than 1e-05 s⁻¹. Besides, in the data set with glucosamine-6-phosphate [2], the “self-cleavage kobs at 640 uM GlcN6P” value is less than 1e-05 s⁻¹.
As to C10A U55A C67G, the “self-cleavage kobs at 160 uM GlcN6P” value with glucosamine-6-phosphate [1] worked out at 6.55e-05 ± 3e-05 s⁻¹. For the same variant, the “self-cleavage kobs at 640 uM GlcN6P” value in the data set with glucosamine-6-phosphate [2] was 0.000418 ± 0.00019 s⁻¹.
Consider G13A G41C C67U, for which the “self-cleavage kobs at 160 uM GlcN6P” value with glucosamine-6-phosphate [1] is less than 1e-05 s⁻¹. Also, the “self-cleavage kobs at 640 uM GlcN6P” value in the data set with glucosamine-6-phosphate [2] is less than 1e-05 s⁻¹. In addition, the “self-cleavage kobs at 2500 uM GlcN6P” value with glucosamine-6-phosphate [3] is less than 1e-05 s⁻¹.
Turning to C8A A48C C68G, the “self-cleavage kobs at 160 uM GlcN6P” value in the data set with glucosamine-6-phosphate [1] was less than 1e-05 s⁻¹. The “self-cleavage kobs at 640 uM GlcN6P” value in the data set with glucosamine-6-phosphate [2] is less than 1e-05 s⁻¹.
U46G U49A: the “self-cleavage kobs at 160 uM GlcN6P” value with glucosamine-6-phosphate [1] was less than 1e-05 s⁻¹. Further, the “self-cleavage kobs at 640 uM GlcN6P” value with glucosamine-6-phosphate [2] was less than 1e-05 s⁻¹. The “self-cleavage kobs at 2500 uM GlcN6P” value in the data set with glucosamine-6-phosphate [3] is less than 1e-05 s⁻¹. Also, the “self-cleavage kobs at 10000 uM GlcN6P” value with glucosamine-6-phosphate [4] is less than 1e-05 s⁻¹.
In the case of A39G A52U C61G A64C, the “self-cleavage kobs at 160 uM GlcN6P” value with glucosamine-6-phosphate [1] was less than 1e-05 s⁻¹. The “self-cleavage kobs at 640 uM GlcN6P” value with glucosamine-6-phosphate [2] was less than 1e-05 s⁻¹. The “self-cleavage kobs at 2500 uM GlcN6P” value with glucosamine-6-phosphate [3] was less than 1e-05 s⁻¹.
As to A12U A15C U45C A48C, in the data set with glucosamine-6-phosphate [1], the “self-cleavage kobs at 160 uM GlcN6P” value was less than 1e-05 s⁻¹. The “self-cleavage kobs at 2500 uM GlcN6P” value with glucosamine-6-phosphate [3] is less than 1e-05 s⁻¹.
As for A15U A42U G51A C67U, the “self-cleavage kobs at 160 uM GlcN6P” value in the data set with glucosamine-6-phosphate [1] was less than 1e-05 s⁻¹. Further, in the data set with glucosamine-6-phosphate [2], the “self-cleavage kobs at 640 uM GlcN6P” value was less than 1e-05 s⁻¹. Also, the “self-cleavage kobs at 10000 uM GlcN6P” value in the data set with glucosamine-6-phosphate [4] was less than 1e-05 s⁻¹.
Turning to C10G G41C G63U, the “self-cleavage kobs at 160 uM GlcN6P” value with glucosamine-6-phosphate [1] was less than 1e-05 s⁻¹. In the data set with glucosamine-6-phosphate [2], the “self-cleavage kobs at 640 uM GlcN6P” value is less than 1e-05 s⁻¹.
On to A36U G51C, for which, in the data set with glucosamine-6-phosphate [1], the “self-cleavage kobs at 160 uM GlcN6P” value is less than 1e-05 s⁻¹. Besides, in the data set with glucosamine-6-phosphate [2], the “self-cleavage kobs at 640 uM GlcN6P” value was less than 1e-05 s⁻¹. Also, the “self-cleavage kobs at 10000 uM GlcN6P” value in the data set with glucosamine-6-phosphate [4] was less than 1e-05 s⁻¹.
On to A15U U55G A64G, for which the “self-cleavage kobs at 160 uM GlcN6P” value with glucosamine-6-phosphate [1] was 0.000233 ± 5.2e-05 s⁻¹.
G9C A36C: the “self-cleavage kobs at 160 uM GlcN6P” value with glucosamine-6-phosphate [1] was less than 1e-05 s⁻¹. Moreover, in the data set with glucosamine-6-phosphate [2], the “self-cleavage kobs at 640 uM GlcN6P” value is less than 1e-05 s⁻¹. The “self-cleavage kobs at 2500 uM GlcN6P” value with glucosamine-6-phosphate [3] is less than 1e-05 s⁻¹. The “self-cleavage kobs at 10000 uM GlcN6P” value with glucosamine-6-phosphate [4] was less than 1e-05 s⁻¹.

Source of the values: the supplement of paper PMC7125110.
